Laboratory results published in paper PMC8789800.
Where two headings read alike, the source gives them in different places.

Assays:
[1] = test system: activated RSK2; type: biochemical, Human; conditions: 10 µM GST-fusion substrate, 0.5 µM activated RSK2, no competitor
[2] = test system: activated RSK2; test: In vitro kinase assay of EIF4B RxxS/T phosphorylation reporters with activated RSK2, Anti-RxxpS/pT Western-blot; conditions: 10 µM GST-fusion construct, 100 nM activated RSK2; mean ± SD, N = 3
[3] = test system: MKP3; test: ppERK2 dephosphorylation by MKP3, quantitative Western-blot; type: biochemical, human; conditions: 1 μM ppERK2, 1 μM MKP3; 1 μM RSK2; 1 or 5 μM ORF45(16-76)
From the text: (§1) Phosphorimaging results are plotted on the panel at the right based on one experiment (N = 1). b In vitro kinase assay results on RSK substrate phosphorylation. […] The schematic panel on the right highlights the hierarchical phosphorylation events (one-end arrows) and the PPIs (two-end arrows) required for NTK mediated phosphorylation of RSK substrates.
Sequences of oligonucleotides used for cloning are listed in Supplementary Table 4.

[4] = test system: MBP-NTK_RSK2; type: binding, Human; conditions: GST-fusion preys, 10–20 µM; Coomassie gel; N = 1; ORF45 = GST-ORF45(16-76)
[5] = target: double-phosphorylated ERK2 (ppERK2) (human) (UniProt P28482); test: fluorescence polarisation
[6] = test system: RSK2 and ERK2-RSK2 complex; test: Size-exclusion chromatography with fluorescently labeled ORF45(16-76); type: binding; conditions: peptide labeled with a fluorescent dye
[7] = test system: ppERK2 → RSK2; test: In vitro kinase assay, 10 nM ppERK2 phosphorylating 2 µM RSK2, phosphorimaging; type: biochemical, Human; conditions: 50 µM ORF45 peptide; tested on ppERK2 → RSK2 and MKK1 → ERK2 → RSK2
Description: as §1
Radioactivity based kinase reactions were carried out in 50 mM HEPES, pH 7.5, 100 mM NaCl, 5 mM MgCl2, 0.05% IGEPAL, 5% glycerol, 2 mM DTT using recombinant expressed and purified proteins in the presence of 250 μM ATP and ∼5 μCi of [γ-^32P]ATP. Reactions were stopped with protein loading sample buffer complemented with 20 mM EDTA, boiled, and then subjected to SDS-PAGE. Gels were dried before phosphorimaging by a Typhoon Trio+ scanner (GE Healthcare).

[8] = test system: activated RSK2; test: In vitro kinase assay of RHDF1(1-289) wild type and F281A with activated RSK2, Anti-RxxpS/pT Western-blot

double-phosphorylated ERK2 (ppERK2) (human), sequence (P28482 whole entry): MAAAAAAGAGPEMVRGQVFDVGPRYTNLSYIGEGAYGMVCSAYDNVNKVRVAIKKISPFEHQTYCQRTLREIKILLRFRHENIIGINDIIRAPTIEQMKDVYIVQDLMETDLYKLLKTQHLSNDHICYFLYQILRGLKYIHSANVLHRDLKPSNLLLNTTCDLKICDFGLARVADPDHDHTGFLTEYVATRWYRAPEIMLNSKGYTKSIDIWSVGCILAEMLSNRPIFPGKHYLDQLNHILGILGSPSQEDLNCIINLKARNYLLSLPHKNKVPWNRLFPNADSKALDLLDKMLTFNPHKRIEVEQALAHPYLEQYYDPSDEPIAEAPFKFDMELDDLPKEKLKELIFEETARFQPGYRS

Molecule: 411-ETQERERSRTGSESSQTGTS-430 [RxxSEIF4B]
- initial phosphorylation rate ([1]; Sample_1): 0.3562
- initial phosphorylation rate ([1]; Sample_2): 0.455
- initial phosphorylation rate ([1]; Sample_3): 0.379
- initial phosphorylation rate ([1]; mean N=3): 0.3967
- RxxSEIF4B phosph. rate [2]: 0.03 ± 0.01 arb. unit / min

Molecule: RSK2: purified human RSK2 added to the ppERK2 dephosphorylation assay
- protection of ppERK2 from dephosphorylation by MKP3 [3]: did not protect ppERK2 from dephosphorylation

Molecule: ORF45(16-76)-F66A: VF-motif mutated version of GST-ORF45(16-76)
- binding in MBP pull-down, RSK2 NTK [4]: did not show detectable binding

Molecule: unlabeled ORF45(16-40) peptide
- Kd [5]: 800 nM

Molecule: ORF45(16-76): 61 amino acid long N-terminal ORF45 peptide, expressed as GST-fusion and cleaved; GST-fusion in Fig. 7 and 8
- binding in size-exclusion chromatography [6]: binds to RSK2 as well as to the ERK2-RSK2 complex
- effect on RSK2 phosphorylation in vitro [7]: blocked RSK2 phosphorylation

B1: SOS1: human SOS1 construct 1101-1170 (legend also 1101-1171) (protein, UniProt Q07889 1101-1170, looked up, fragment)
chain: VCSVFDSDHSSPFHSSNDTVFIQVTLPHGPRSASVSSISLTKGTDEVPVPPPVPPRRRPESAPAESSPSK
- initial phosphorylation rate ([1]; Sample_1): 1.226
- initial phosphorylation rate ([1]; Sample_2): 1.21
- initial phosphorylation rate ([1]; Sample_3): 0.88
- initial phosphorylation rate ([1]; mean N=3): 1.105

B2: RHDF: human RHDF1 construct 1-289, wild type (protein, UniProt Q96CC6 1-289, looked up, fragment)
chain: MSEARRDSTSSLQRKKPPWLKLDIPSAVPLTAEEPSFLQPLRRQAFLRSVSMPAETAHISSPHHELRRPVLQRQTSITQTIRRGTADWFGVSKDSDSTQKWQRKSIRHCSQRYGKLKPQVLRELDLPSQDNVSLTSTETPPPLYVGPCQLGMQKIIDPLARGRAFRVADDTAEGLSAPHTPVTPGAASLCSFSSSRSGFHRLPRRRKRESVAKMSFRAAAALMKGRSVRDGTFRRAQRRSFTPASFLEEDTTDFPDELDTSFFAREGILHEELSTYPDEVFESPSEAAL
- initial phosphorylation rate ([1]; Sample_1): 0.1656
- initial phosphorylation rate ([1]; Sample_2): 0.1405
- initial phosphorylation rate ([1]; Sample_3): 0.1427
- initial phosphorylation rate ([1]; mean N=3): 0.1496
- RxxS motif phosphorylation, Normalized to RHDF_Mean ([8]; Sample_1): 1.075
- RxxS motif phosphorylation, Normalized to RHDF_Mean ([8]; Sample_2): 0.9889
- RxxS motif phosphorylation, Normalized to RHDF_Mean ([8]; Sample_3): 0.9363
- RxxS motif phosphorylation, Normalized to RHDF_Mean ([8]; mean N=3): 1

B3: RHDF_F281A: RHDF1_1-289 with the VF motif mutated (F281A) (protein, UniProt Q96CC6 1-289, looked up, variant F281A)
chain: MSEARRDSTSSLQRKKPPWLKLDIPSAVPLTAEEPSFLQPLRRQAFLRSVSMPAETAHISSPHHELRRPVLQRQTSITQTIRRGTADWFGVSKDSDSTQKWQRKSIRHCSQRYGKLKPQVLRELDLPSQDNVSLTSTETPPPLYVGPCQLGMQKIIDPLARGRAFRVADDTAEGLSAPHTPVTPGAASLCSFSSSRSGFHRLPRRRKRESVAKMSFRAAAALMKGRSVRDGTFRRAQRRSFTPASFLEEDTTDFPDELDTSFFAREGILHEELSTYPDEVAESPSEAAL
- RxxS motif phosphorylation, Normalized to RHDF_Mean ([8]; Sample_1): 0.1221
- RxxS motif phosphorylation, Normalized to RHDF_Mean ([8]; Sample_2): 0.1251
- RxxS motif phosphorylation, Normalized to RHDF_Mean ([8]; Sample_3): 0.1185
- RxxS motif phosphorylation, Normalized to RHDF_Mean ([8]; mean N=3): 0.1219
